Data as given in patent US20110190196A1 (University of California, published 2011).
Read-outs that look alike come from different tables or passages of the source.

Columns and labels:
Assay in all cases: cell-based or functional assay
[1] = target: T1, ATP-binding cassette transporter A1 (ABCA1) (UniProt P41233 1-2261, limits assumed)
[2] = target: T1, ATP-binding cassette transporter A1 …; remark: listed apart in the source
[3] = target: T1, ATP-binding cassette transporter A1 …; remark: listed apart in the source
[4] = target: T1, ATP-binding cassette transporter A1 …; remark: listed apart in the source
[5] = target: T1, ATP-binding cassette transporter A1 …; remark: listed apart in the source
[6] = target: T1, ATP-binding cassette transporter A1 …; remark: listed apart in the source

T1 sequence (P41233 whole entry): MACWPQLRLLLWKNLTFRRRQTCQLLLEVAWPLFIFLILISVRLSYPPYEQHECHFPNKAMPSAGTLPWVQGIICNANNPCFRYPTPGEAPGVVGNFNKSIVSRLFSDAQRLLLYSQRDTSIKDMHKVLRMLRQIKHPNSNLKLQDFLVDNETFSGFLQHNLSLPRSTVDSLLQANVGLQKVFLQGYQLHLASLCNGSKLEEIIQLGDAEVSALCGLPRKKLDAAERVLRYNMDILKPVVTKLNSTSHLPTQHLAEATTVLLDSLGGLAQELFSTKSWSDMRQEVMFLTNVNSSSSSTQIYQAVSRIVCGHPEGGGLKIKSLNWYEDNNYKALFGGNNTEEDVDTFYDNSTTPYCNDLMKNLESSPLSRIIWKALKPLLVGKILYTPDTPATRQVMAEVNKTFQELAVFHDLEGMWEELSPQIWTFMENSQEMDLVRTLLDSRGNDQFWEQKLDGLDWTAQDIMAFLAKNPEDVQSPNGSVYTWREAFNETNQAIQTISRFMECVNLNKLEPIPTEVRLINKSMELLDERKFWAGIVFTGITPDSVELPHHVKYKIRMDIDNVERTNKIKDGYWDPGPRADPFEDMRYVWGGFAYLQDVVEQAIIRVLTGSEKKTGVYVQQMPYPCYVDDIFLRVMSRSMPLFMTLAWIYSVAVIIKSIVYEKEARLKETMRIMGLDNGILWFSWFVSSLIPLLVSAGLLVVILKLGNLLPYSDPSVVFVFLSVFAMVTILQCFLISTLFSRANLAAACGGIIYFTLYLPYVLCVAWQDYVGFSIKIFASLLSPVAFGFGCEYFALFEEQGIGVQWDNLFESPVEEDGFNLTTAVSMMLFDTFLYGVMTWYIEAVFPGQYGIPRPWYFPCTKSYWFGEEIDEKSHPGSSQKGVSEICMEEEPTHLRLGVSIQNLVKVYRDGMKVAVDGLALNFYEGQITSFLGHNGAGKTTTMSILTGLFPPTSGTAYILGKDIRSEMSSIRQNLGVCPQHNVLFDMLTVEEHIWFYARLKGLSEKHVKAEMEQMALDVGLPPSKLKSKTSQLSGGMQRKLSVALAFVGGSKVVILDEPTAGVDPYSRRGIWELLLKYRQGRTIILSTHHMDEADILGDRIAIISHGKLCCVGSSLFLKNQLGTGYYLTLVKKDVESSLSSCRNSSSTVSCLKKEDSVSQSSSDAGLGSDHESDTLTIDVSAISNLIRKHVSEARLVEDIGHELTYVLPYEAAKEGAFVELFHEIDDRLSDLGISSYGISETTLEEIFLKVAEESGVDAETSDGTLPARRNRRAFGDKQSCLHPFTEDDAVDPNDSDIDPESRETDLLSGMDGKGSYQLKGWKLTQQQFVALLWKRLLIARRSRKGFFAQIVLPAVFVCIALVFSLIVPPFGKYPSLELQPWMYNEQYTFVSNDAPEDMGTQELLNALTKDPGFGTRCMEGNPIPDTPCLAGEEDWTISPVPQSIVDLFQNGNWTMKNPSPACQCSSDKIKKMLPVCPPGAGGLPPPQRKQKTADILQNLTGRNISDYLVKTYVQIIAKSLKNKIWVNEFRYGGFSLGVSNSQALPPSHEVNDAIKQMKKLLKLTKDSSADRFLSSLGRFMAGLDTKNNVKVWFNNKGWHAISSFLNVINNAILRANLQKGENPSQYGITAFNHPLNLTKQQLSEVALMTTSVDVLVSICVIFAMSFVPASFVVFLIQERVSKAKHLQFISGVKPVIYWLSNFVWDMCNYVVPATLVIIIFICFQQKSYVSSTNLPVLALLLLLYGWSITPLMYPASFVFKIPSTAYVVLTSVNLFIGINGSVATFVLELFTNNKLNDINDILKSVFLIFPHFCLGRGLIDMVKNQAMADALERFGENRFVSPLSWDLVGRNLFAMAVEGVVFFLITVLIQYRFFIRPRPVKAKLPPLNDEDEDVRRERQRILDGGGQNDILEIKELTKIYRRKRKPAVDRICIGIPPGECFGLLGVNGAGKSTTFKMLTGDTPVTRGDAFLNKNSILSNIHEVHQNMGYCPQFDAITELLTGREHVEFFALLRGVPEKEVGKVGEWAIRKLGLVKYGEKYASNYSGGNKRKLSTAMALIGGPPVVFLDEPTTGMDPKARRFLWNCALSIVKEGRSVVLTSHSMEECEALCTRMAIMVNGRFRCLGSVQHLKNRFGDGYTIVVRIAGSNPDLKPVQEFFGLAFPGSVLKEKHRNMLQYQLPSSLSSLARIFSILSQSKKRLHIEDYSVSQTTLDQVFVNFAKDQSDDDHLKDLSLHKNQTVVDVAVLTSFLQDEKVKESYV

B1: N965-4 (peptide)
peptide: EVREKLEAWFELFREFLERFKS
[1]
  % cholesterol efflux/8 hours, +cAMP: 4.76%
  % cholesterol efflux/8 hours, -cAMP: 1.52%
[2]
  % cholesterol efflux/4 hours at 0.1 µg/ml: 0.29%
  % cholesterol efflux/4 hours at 0.3 µg/ml: 0.67%
  % cholesterol efflux/4 hours at 1.0 µg/ml: 2.7%
  % cholesterol efflux/4 hours at 3.0 µg/ml: 4.72%
  % cholesterol efflux/4 hours at 10 µg/ml: 4%
  % cholesterol efflux/4 hours at 30 µg/ml: 2.94%

B2: N356-7 (peptide)
peptide: ELRAKLEAWFEAFAEFFARF
[3]
  % cholesterol efflux/8 hours, No cAMP: 2.78%
  % cholesterol efflux/8 hours, Plus cAMP: 7%
[4]
  % cholesterol efflux/4 hours at 0.1 µg/ml: 0.15%
  % cholesterol efflux/4 hours at 0.3 µg/ml: 0.23%
  % cholesterol efflux/4 hours at 1.0 µg/ml: 1.17%
  % cholesterol efflux/4 hours at 3.0 µg/ml: 4.99%
  % cholesterol efflux/4 hours at 10 µg/ml: 5.49%
  % cholesterol efflux/4 hours at 30 µg/ml: 5.66%

B3: N356-1 (peptide)
peptide: ELREKLEAWFEAFEEFFARFKS
[3]
  % cholesterol efflux/8 hours, No cAMP: 0.86%
  % cholesterol efflux/8 hours, Plus cAMP: 4.16%
[4]
  % cholesterol efflux/4 hours at 0.1 µg/ml: 0%
  % cholesterol efflux/4 hours at 0.3 µg/ml: 0%
  % cholesterol efflux/4 hours at 1.0 µg/ml: 0.23%
  % cholesterol efflux/4 hours at 3.0 µg/ml: 4.71%
  % cholesterol efflux/4 hours at 10 µg/ml: 5.61%
  % cholesterol efflux/4 hours at 30 µg/ml: 3.5%

B4: N356-2 (peptide)
peptide: ELREKLEAWRELFEEFFARFKS
[3]
  % cholesterol efflux/8 hours, No cAMP: 1.27%
  % cholesterol efflux/8 hours, Plus cAMP: 6.52%
[4]
  % cholesterol efflux/4 hours at 0.1 µg/ml: 0%
  % cholesterol efflux/4 hours at 0.3 µg/ml: 0%
  % cholesterol efflux/4 hours at 1.0 µg/ml: 0.02%
  % cholesterol efflux/4 hours at 3.0 µg/ml: 1.3%
  % cholesterol efflux/4 hours at 10 µg/ml: 5.7%
  % cholesterol efflux/4 hours at 30 µg/ml: 5.92%

B5: N965-2 (peptide)
peptide: EVREKLEAWFELFREFAERFKS
[1]
  % cholesterol efflux/8 hours, +cAMP: 6.97%
  % cholesterol efflux/8 hours, -cAMP: 1.28%
[2]
  % cholesterol efflux/4 hours at 0.1 µg/ml: 0%
  % cholesterol efflux/4 hours at 0.3 µg/ml: 0.13%
  % cholesterol efflux/4 hours at 1.0 µg/ml: 0.01%
  % cholesterol efflux/4 hours at 3.0 µg/ml: 2.23%
  % cholesterol efflux/4 hours at 10 µg/ml: 5.96%
  % cholesterol efflux/4 hours at 30 µg/ml: 3.98%

B6: N965-9 (peptide)
peptide: ELREKLEAWRELFEEFFARFLS
[1]
  % cholesterol efflux/8 hours, +cAMP: 2.94%
  % cholesterol efflux/8 hours, -cAMP: 1.06%
[2]
  % cholesterol efflux/4 hours at 0.1 µg/ml: 0.03%
  % cholesterol efflux/4 hours at 0.3 µg/ml: 0.41%
  % cholesterol efflux/4 hours at 1.0 µg/ml: 0.72%
  % cholesterol efflux/4 hours at 3.0 µg/ml: 2.45%
  % cholesterol efflux/4 hours at 10 µg/ml: 1.77%
  % cholesterol efflux/4 hours at 30 µg/ml: 1.41%

B7: N356-3 (peptide)
peptide: ELREKLEAWFELFEEFFARFKS
[3]
  % cholesterol efflux/8 hours, No cAMP: 0.82%
  % cholesterol efflux/8 hours, Plus cAMP: 3.94%
[4]
  % cholesterol efflux/4 hours at 0.1 µg/ml: 0%
  % cholesterol efflux/4 hours at 0.3 µg/ml: 0.57%
  % cholesterol efflux/4 hours at 1.0 µg/ml: 1.2%
  % cholesterol efflux/4 hours at 3.0 µg/ml: 4.34%
  % cholesterol efflux/4 hours at 10 µg/ml: 5.13%
  % cholesterol efflux/4 hours at 30 µg/ml: 3.24%

B8: N356-4 (peptide)
peptide: ELREKLEAWFELFAEFFARFKS
[3]
  % cholesterol efflux/8 hours, No cAMP: 1.72%
  % cholesterol efflux/8 hours, Plus cAMP: 4.25%
[4]
  % cholesterol efflux/4 hours at 0.1 µg/ml: 0.14%
  % cholesterol efflux/4 hours at 0.3 µg/ml: 0.61%
  % cholesterol efflux/4 hours at 1.0 µg/ml: 1.89%
  % cholesterol efflux/4 hours at 3.0 µg/ml: 5.68%
  % cholesterol efflux/4 hours at 10 µg/ml: 6.06%
  % cholesterol efflux/4 hours at 30 µg/ml: 6.52%

B9: N356-6 (peptide)
peptide: ELREKLEAWFELFAEFFARF
[3]
  % cholesterol efflux/8 hours, No cAMP: 2.09%
  % cholesterol efflux/8 hours, Plus cAMP: 4.04%
[4]
  % cholesterol efflux/4 hours at 0.1 µg/ml: 0.01%
  % cholesterol efflux/4 hours at 0.3 µg/ml: 0.23%
  % cholesterol efflux/4 hours at 1.0 µg/ml: 0.67%
  % cholesterol efflux/4 hours at 3.0 µg/ml: 4.07%
  % cholesterol efflux/4 hours at 10 µg/ml: 3.78%
  % cholesterol efflux/4 hours at 30 µg/ml: 3.91%

B10: N1154-11 (peptide)
peptide: DLRDRLDAWLDLLRDLLDRL
[5]
  % cholesterol efflux/8 hours, No cAMP: 4.2%
  % cholesterol efflux/8 hours, Plus cAMP: 9.04%
[6]
  % cholesterol efflux/4 hours at 0.1 µg/ml: 0.58%
  % cholesterol efflux/4 hours at 0.3 µg/ml: 1.34%
  % cholesterol efflux/4 hours at 1.0 µg/ml: 2.56%
  % cholesterol efflux/4 hours at 3.0 µg/ml: 4.84%
  % cholesterol efflux/4 hours at 10 µg/ml: 4.17%
  % cholesterol efflux/4 hours at 30 µg/ml: 5.55%

B11: N1154-10 (peptide)
peptide: ELRDRLEAWLDLLRELLERL
[5]
  % cholesterol efflux/8 hours, No cAMP: 2.66%
  % cholesterol efflux/8 hours, Plus cAMP: 8.25%
[6]
  % cholesterol efflux/4 hours at 0.1 µg/ml: 0.58%
  % cholesterol efflux/4 hours at 0.3 µg/ml: 1%
  % cholesterol efflux/4 hours at 1.0 µg/ml: 2.12%
  % cholesterol efflux/4 hours at 3.0 µg/ml: 5.25%
  % cholesterol efflux/4 hours at 10 µg/ml: 4.15%
  % cholesterol efflux/4 hours at 30 µg/ml: 3.7%

B12: N356-5 (peptide)
peptide: ELREKLEAWFELFAEFFARFK
[3]
  % cholesterol efflux/8 hours, No cAMP: 2.18%
  % cholesterol efflux/8 hours, Plus cAMP: 5.97%
[4]
  % cholesterol efflux/4 hours at 0.1 µg/ml: 0.02%
  % cholesterol efflux/4 hours at 0.3 µg/ml: 0.31%
  % cholesterol efflux/4 hours at 1.0 µg/ml: 1.59%
  % cholesterol efflux/4 hours at 3.0 µg/ml: 4.27%
  % cholesterol efflux/4 hours at 10 µg/ml: 3.86%
  % cholesterol efflux/4 hours at 30 µg/ml: 3.2%

B13: N965-3 (peptide)
peptide: EVREKLEAWFELFREFAERFLS
[1]
  % cholesterol efflux/8 hours, +cAMP: 3.85%
  % cholesterol efflux/8 hours, -cAMP: 1.45%
[2]
  % cholesterol efflux/4 hours at 0.1 µg/ml: 0.23%
  % cholesterol efflux/4 hours at 0.3 µg/ml: 0.47%
  % cholesterol efflux/4 hours at 1.0 µg/ml: 1.06%
  % cholesterol efflux/4 hours at 3.0 µg/ml: 3.48%
  % cholesterol efflux/4 hours at 10 µg/ml: 3.05%
  % cholesterol efflux/4 hours at 30 µg/ml: 2.53%

B14: N1154-9 (peptide)
peptide: DLRDKLDAWLDLLRDLLDRL
[5]
  % cholesterol efflux/8 hours, No cAMP: 1.81%
  % cholesterol efflux/8 hours, Plus cAMP: 4.83%
[6]
  % cholesterol efflux/4 hours at 0.1 µg/ml: 0.08%
  % cholesterol efflux/4 hours at 0.3 µg/ml: 0.43%
  % cholesterol efflux/4 hours at 1.0 µg/ml: 1.81%
  % cholesterol efflux/4 hours at 3.0 µg/ml: 3.48%
  % cholesterol efflux/4 hours at 10 µg/ml: 3.31%
  % cholesterol efflux/4 hours at 30 µg/ml: 4.35%

B15: N1154-6 (peptide)
peptide: ELREKLEAWLELLRELLERL
[5]
  % cholesterol efflux/8 hours, No cAMP: 1.17%
  % cholesterol efflux/8 hours, Plus cAMP: 4.29%
[6]
  % cholesterol efflux/4 hours at 0.1 µg/ml: 0.18%
  % cholesterol efflux/4 hours at 0.3 µg/ml: 0.46%
  % cholesterol efflux/4 hours at 1.0 µg/ml: 2.51%
  % cholesterol efflux/4 hours at 3.0 µg/ml: 4.73%
  % cholesterol efflux/4 hours at 10 µg/ml: 3.56%
  % cholesterol efflux/4 hours at 30 µg/ml: 2.71%

B16: N1154-7 (peptide)
peptide: ELRERLEAWLELLRELLERL
[5]
  % cholesterol efflux/8 hours, No cAMP: 1.23%
  % cholesterol efflux/8 hours, Plus cAMP: 4.14%
[6]
  % cholesterol efflux/4 hours at 0.1 µg/ml: 0.23%
  % cholesterol efflux/4 hours at 0.3 µg/ml: 0.83%
  % cholesterol efflux/4 hours at 1.0 µg/ml: 2.26%
  % cholesterol efflux/4 hours at 3.0 µg/ml: 4.14%
  % cholesterol efflux/4 hours at 10 µg/ml: 3.24%
  % cholesterol efflux/4 hours at 30 µg/ml: 3.28%

B17: N965-7 (peptide)
peptide: EVREKLEAWFELFREFLERF
[1]
  % cholesterol efflux/8 hours, +cAMP: 4.03%
  % cholesterol efflux/8 hours, -cAMP: 1.5%
[2]
  % cholesterol efflux/4 hours at 0.1 µg/ml: 0.03%
  % cholesterol efflux/4 hours at 0.3 µg/ml: 0.3%
  % cholesterol efflux/4 hours at 1.0 µg/ml: 1.39%
  % cholesterol efflux/4 hours at 3.0 µg/ml: 4.94%
  % cholesterol efflux/4 hours at 10 µg/ml: 3.65%
  % cholesterol efflux/4 hours at 30 µg/ml: 2.66%

B18: N965-6 (peptide)
peptide: EVREKLEAWFELFREFLERFL
[1]
  % cholesterol efflux/8 hours, +cAMP: 6.18%
  % cholesterol efflux/8 hours, -cAMP: 3.15%
[2]
  % cholesterol efflux/4 hours at 0.1 µg/ml: 0.11%
  % cholesterol efflux/4 hours at 0.3 µg/ml: 0.49%
  % cholesterol efflux/4 hours at 1.0 µg/ml: 1.59%
  % cholesterol efflux/4 hours at 3.0 µg/ml: 1.98%
  % cholesterol efflux/4 hours at 10 µg/ml: 2.22%
  % cholesterol efflux/4 hours at 30 µg/ml: 2.75%

B19: N965-5 (peptide)
peptide: EVREKLEAWFELFREFLERFLS
[1]
  % cholesterol efflux/8 hours, +cAMP: 5.52%
  % cholesterol efflux/8 hours, -cAMP: 2.91%
[2]
  % cholesterol efflux/4 hours at 0.1 µg/ml: 0.12%
  % cholesterol efflux/4 hours at 0.3 µg/ml: 0.9%
  % cholesterol efflux/4 hours at 1.0 µg/ml: 2.13%
  % cholesterol efflux/4 hours at 3.0 µg/ml: 4.89%
  % cholesterol efflux/4 hours at 10 µg/ml: 4.06%
  % cholesterol efflux/4 hours at 30 µg/ml: 3.82%

B20: N1154-8 (peptide)
peptide: ELRDKLEAWLDLLRELLERL
[5]
  % cholesterol efflux/8 hours, No cAMP: 1.31%
  % cholesterol efflux/8 hours, Plus cAMP: 4.38%
[6]
  % cholesterol efflux/4 hours at 0.1 µg/ml: 0%
  % cholesterol efflux/4 hours at 0.3 µg/ml: 0.48%
  % cholesterol efflux/4 hours at 1.0 µg/ml: 1.51%
  % cholesterol efflux/4 hours at 3.0 µg/ml: 3.41%
  % cholesterol efflux/4 hours at 10 µg/ml: 2.99%
  % cholesterol efflux/4 hours at 30 µg/ml: 3.02%

B21: N965-1 (peptide)
peptide: EVREKLEAWFEAFREFAERFKS
[1]
  % cholesterol efflux/8 hours, +cAMP: 9.9%
  % cholesterol efflux/8 hours, -cAMP: 1.75%
[2]
  % cholesterol efflux/4 hours at 0.1 µg/ml: 0%
  % cholesterol efflux/4 hours at 0.3 µg/ml: 0.13%
  % cholesterol efflux/4 hours at 1.0 µg/ml: 0%
  % cholesterol efflux/4 hours at 3.0 µg/ml: 0.44%
  % cholesterol efflux/4 hours at 10 µg/ml: 2.9%
  % cholesterol efflux/4 hours at 30 µg/ml: 6.01%
